Results reported in article PMC4112642, “Tomato PYR/PYL/RCAR abscisic acid receptors show high expression in root, differential sensitivity to the abscisic acid agonist quinabactin, and the capability to enhance plant drought resistance” (Journal of Experimental Botany, 2014).
Blank lines part the entries; values can stand above or below the molecule they belong to.

Key:
[1] = molecular target: 6g061180 tomato ABA receptor, recombinant, purified for size exclusion chromatography (tomato (Solanum lycopersicum)); assay: SEC; Superdex200 10/30 in 25mM TRIS-HCl pH 8.0, 200mM NaCl, 5mM beta-mercaptoethanol, in the absence of ABA; about 1mg loaded of 8g076960, 6g061180 or 6g050500 (concentrated to 10mg ml^-1), 0.1mg of 12g055990 (0.7mg ml^-1)
[2] = molecular target: 8g076960 tomato ABA receptor, recombinant, purified for size exclusion chromatography (tomato (Solanum lycopersicum)); assay: as above
[3] = molecular target: T1, 6g061180 (Sl06g061180) with ΔN 12g096020 (Solanum lycopersicum, UniProt A0A3Q7HQZ7); assay: receptor-mediated PP2C inhibition, RRA(phosphoT)VA phosphopeptide, molybdate dye; type: biochemical; details: agonist; 0.5 μM PP2C, 2 μM receptor, 0.1-10 μM ligand; 10 mM MgCl2, pH 7.5, 30 °C
T1 construct: gene LOC101267127; PP2C N-terminally deleted catalytic core 178-509; with Protein phosphatase 2C HAB1-like (clade A)

[4] = molecular target: T2, 8g076960 (Sl08g076960) with ΔN 12g096020 (Solanum lycopersicum, UniProt A0A3Q7HTY9); assay: as above; type: biochemical; details: agonist; 0.5 μM PP2C, 2 μM receptor, 0.1-10 μM ligand; 10 mM MgCl2, pH 7.5, 30 °C
T2 construct: gene LOC101268417; PP2C N-terminally deleted catalytic core 178-509; with Protein phosphatase 2C HAB1-like (clade A)

[5] = molecular target: the molecule itself; assay: SEC; Superdex200 10/30 in 25mM TRIS-HCl pH 8.0, 200mM NaCl, 5mM beta-mercaptoethanol, in the absence of ABA; about 1mg loaded of 8g076960, 6g061180 or 6g050500 (concentrated to 10mg ml^-1), 0.1mg of 12g055990 (0.7mg ml^-1)

T2 sequence (A0A3Q7HTY9 entry or part of it, stated change not applied): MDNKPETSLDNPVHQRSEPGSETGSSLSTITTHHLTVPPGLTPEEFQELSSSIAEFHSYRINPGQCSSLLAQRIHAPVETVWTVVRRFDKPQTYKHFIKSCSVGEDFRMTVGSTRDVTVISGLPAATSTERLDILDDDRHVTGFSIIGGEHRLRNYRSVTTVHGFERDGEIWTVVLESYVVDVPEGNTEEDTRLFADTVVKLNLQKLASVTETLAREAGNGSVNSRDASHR
T1 sequence (A0A3Q7HQZ7 entry or part of it, stated change not applied): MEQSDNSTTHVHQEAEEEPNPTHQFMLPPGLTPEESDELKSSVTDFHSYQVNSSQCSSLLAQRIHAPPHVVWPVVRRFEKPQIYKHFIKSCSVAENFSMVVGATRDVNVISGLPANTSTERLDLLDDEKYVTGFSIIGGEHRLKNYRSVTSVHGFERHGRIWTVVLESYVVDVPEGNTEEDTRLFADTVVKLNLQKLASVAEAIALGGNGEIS

stoichiometry N [1]: 2
Molecule: 6g061180 tomato ABA receptor, recombinant, purified for size exclusion chromatography

stoichiometry N [2]: 2
Molecule: 8g076960 tomato ABA receptor, recombinant, purified for size exclusion chromatography

Molecule: CCCN1C(=O)CCc2cc(NS(=O)(=O)Cc3ccc(C)cc3)ccc21 [quinabactin]
% PP2C activity [3]: efficiently through the dimeric tomato receptors 8g076960 and 6g061180
% PP2C activity [4]: QB inhibited (compared with ABA) ΔN12g096020 phosphatase activity efficiently through the dimeric tomato receptors 8g076960

B1: 6g050500 tomato ABA receptor, recombinant, purified for size exclusion chromatography (receptor)
chain: MPSSLQLHRINPTTATLAVKQPQLSQATTWFSPVSTSVPDNVLHHHTHVVGPNQCCSAVLQSISAPIDTVWSLVRRFDNPQAYKHFLKSCHVIVGDGDVGTLREVRVVSGLPAGSSTERLEILDDEKHVLSFSVVGGDHRLNNYRSVTTLHRAAEEGSTVVVESYVVDVPQGNTKEETCVFVDTIVRCNLQSLAQIAQNLAKTSKNHDEDPQLKIHRLVDFV
stoichiometry N [5]: 2
